Experimental data reported in US9518995B2, “FKBP52-Tau interaction as a novel therapeutical target for treating the neurological disorders involving Tau dysfunction” (Institut National de la Sante et de la Recherche Medicale …, priority 2009, dated 2016).
One block for each molecule: values may come before it.

Assays:
H7C2 cells [1] = assay: Quantitation of neurite outgrowth; format: cell-based, rat; settings: 50 nM NGF and Dox, compared to H7C2 not treated with Dox
Protocol: Cell culture: PC12 cells and H7C2 cells were grown in DMEM containing 10% (v/v) horse serum and 5% (v/v) FBS (Invitrogen) at 37° C. in 90% O2/10% CO2. The differentiated neuronal phenotype of cells grown on plastic dishes coated with 10 μg/ml poly(L)-lysine (Sigma), was induced by adding nerve growth factors (NGF) (Invitrogen) for 5 days. Primary cultures from cerebral cortex of embryonic day 17rat foetuses were carried out. Dissociated cells were plated (50,000 cells per ml) on glass coverslips coated with poly(L-ornithine) and cultured in a defined medium in 95% O2/5% CO2 at 37° C. Quantitation of neurite outgrowth: Random field photographs of PC12 and H7C2 cells, in each of three wells, were analyzed with Neuron J software. The average neurite length was determined by measuring the longest neurites of at least 200 cells randomly selected.

H7C2 cells [2] = assay: FKBP52 induction in H7C2 cells (Western blot); format: cell-based, rat; settings: after 5 days of Dox treatment
Protocol: Generation of H7C2 cells: The cDNA encoding rabbit FKBP52 was inserted into the HindIII and AccI restriction sites of the pTRE2 vector (Clontech) in order to give pTRE2-FKBP52. Transfection of 100 μg of pTR2-FKBP52 and 10 μg of pTK-hygromicin was carried out in a commercially available PC12 Tet-on cell line (Clontech) that expresses the reverse tetracycline controlled transactivator, using Lipofectamine™ (Invitrogen). Stably transfected cells were selected with 100 μg/ml hygromycin and screened individually. Cell culture: PC12 cells and H7C2 cells were grown in DMEM containing 10% (v/v) horse serum and 5% (v/v) FBS (Invitrogen) at 37° C. in 90% […]/10% CO2. The differentiated neuronal phenotype of cells grown on plastic dishes coated with 10 μg/ml poly(L)-lysine (Sigma), was induced by adding nerve growth factors (NGF) (Invitrogen) for 5 days. Primary cultures from cerebral cortex of embryonic day 17rat foetuses were carried out. Dissociated cells were plated (50,000 cells per ml) on glass coverslips coated with poly(L-ornithine) and cultured in a defined medium in 95% O2/5% CO2 at 37° C.

[3] = target: T1, P-Tau (phosphorylated recombinant hT40) (Homo sapiens, UniProt P10636); assay: Dot blot assay, FKBP52 captured by spotted P-Tau; format: binding; settings: same amount (2.2 μg) P-Tau as bait; 0.5 μg FKBP52
T1 construct: made in house; host or cells: E. coli; then phosphorylated in vitro with adult rat brain cytosol without okadaic acid
T1 sequence (P10636 1-441 isoform P10636-8): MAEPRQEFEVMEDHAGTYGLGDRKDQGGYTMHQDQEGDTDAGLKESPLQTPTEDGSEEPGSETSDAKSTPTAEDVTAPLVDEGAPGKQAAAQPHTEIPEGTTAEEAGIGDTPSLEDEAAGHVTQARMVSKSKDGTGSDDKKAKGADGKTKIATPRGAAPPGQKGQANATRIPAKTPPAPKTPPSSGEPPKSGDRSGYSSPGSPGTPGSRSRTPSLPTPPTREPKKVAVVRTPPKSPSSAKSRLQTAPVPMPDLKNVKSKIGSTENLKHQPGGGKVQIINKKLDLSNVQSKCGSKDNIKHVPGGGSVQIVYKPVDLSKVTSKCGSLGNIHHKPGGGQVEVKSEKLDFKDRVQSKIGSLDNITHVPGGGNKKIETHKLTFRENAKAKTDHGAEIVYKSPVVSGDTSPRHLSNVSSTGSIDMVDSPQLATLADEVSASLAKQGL
Protocol: (§1) Phosphorylation and hyperphosphorylation of recombinant Tau: Rat brain extract was used as the source of kinase activity, as described (18). Briefly, recombinant hT40 was incubated with cytosol of adult rat brain, in the presence or absence of okadaic acid, to give HP-Tau (hyperphosphorylated-Tau) and P-Tau (phosphorylated-Tau), respectively.
(§2) Dot blot assay: 100 μl of buffer A containing different amounts of hT40 were applied to a nitrocellulose membrane, blocked with 5% non-fat milk in phosphate-buffered saline (PBS) containing 0.1% Tween 20 (PBS-T) at room temperature, washed with PBS-T and buffer A, followed by 2 h incubation at room temperature with 100 μl of buffer A containing […] recombinant FKBP52. The membranes were washed with buffer IP (50 mM Tris (pH 7.5)/150 mM NaCl/2 mM MgCl2/0.1% Brij97 (Sigma)/10% glycerol/protease inhibitors) and with PBS-T. After blocking with milk in PBS-T, the membranes were incubated with anti-FKBP52 761 antibody. […] Quantitation was performed with Quantity-one software using Chemidoc XRS fitted with a 16 bit CCD camera (Biorad).

[4] = target: T2, tubulin polymerization induced by recombinant human Tau isoforms (Homo sapiens, UniProt P10636); assay: Microtubule assembly assay (tubulin polymerization induced by recombinant Tau isoforms); format: biochemical, rat; settings: tubulin 1 mg/ml, 1.7 μM Tau isoforms, 3.5 μM protein, turbidity at 345 nm
T2 construct: made in house; host or cells: Tau: E. coli; tubulin: adult Sprague-Dawley rat brain
T2 sequence (P10636 2-441 isoform P10636-8): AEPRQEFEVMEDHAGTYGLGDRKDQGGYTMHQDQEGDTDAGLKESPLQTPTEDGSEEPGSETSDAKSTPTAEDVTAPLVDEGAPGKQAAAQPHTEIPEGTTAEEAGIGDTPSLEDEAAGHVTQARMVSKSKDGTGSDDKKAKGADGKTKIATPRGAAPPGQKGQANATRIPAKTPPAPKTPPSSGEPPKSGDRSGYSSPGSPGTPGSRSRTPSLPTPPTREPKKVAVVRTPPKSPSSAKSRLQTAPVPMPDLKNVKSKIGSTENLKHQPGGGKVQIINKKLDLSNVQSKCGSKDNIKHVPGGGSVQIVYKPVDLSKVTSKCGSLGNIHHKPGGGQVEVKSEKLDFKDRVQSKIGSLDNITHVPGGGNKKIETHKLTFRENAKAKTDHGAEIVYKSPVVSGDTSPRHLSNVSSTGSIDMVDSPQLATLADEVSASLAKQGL
Protocol: Preparation of Tubulin and microtubule assembly assay: Male adult Sprague-Dawley rats (body weight ˜250 g) were obtained from Janvier (Le Genest-St.-Isle, France). They were killed by decapitation, according to institutional guidelines, and whole brains were used immediately to prepare tubulin as described (9). Microtubule assembly assays were performed as in (9).
Protein purification and Overexpression of different Tau isoforms and FKBP52 protein: The six isoforms of human brain Tau were expressed in E. coli from clones hT40, hT39, hT37, hT34, hT24, hT23 and purified as described (28). Full length FKBP52 was affinity purified as in (23). For the Tubulin polymerization assay, FKBP52 bound to glutathione-Sepharose beads (GE Healthcare) were cleaved overnight at 4° C. with 2 units of thrombin (GE Healthcare) and dialyzed against buffer L (0.1 M Mes, 1 mM EGTA, 1 mM MgCL2, 0.1 mM EDTA) with 10% glycerol, and complemented before use to 1 mM GTP and 1 mM DTT and 10 μM PPACK (a potent irreversible inhibitor of thrombin) (Biomol).

[5] = target: T3, HP-Tau (hyperphosphorylated recombinant hT40) (Homo sapiens, UniProt P10636); assay: Dot blot assay, FKBP52 captured by spotted HP-Tau; format: binding; settings: 2.2 μg HP-Tau spotted; 0.5 μg FKBP52
T3 construct: made in house; host or cells: E. coli; then phosphorylated in vitro with adult rat brain cytosol in the presence of okadaic acid
T3 sequence (P10636 1-441 isoform P10636-8): as the sequence (P10636 1-441 isoform P10636-8) above
Protocol: as §1, §2

[6] = target: T4, recombinant Tau protein (longest isoform) (Homo sapiens, UniProt P10636); assay: Sedimentation assay of Tau polymerization in oxidative conditions; format: biochemical; settings: Tau 0.5 mg/ml
T4 construct: made in house
T4 sequence (P10636 1-441 isoform P10636-8): as above
Protocol: To investigate the effect of FKBP52 on Tau oligomerization we monitored by sedimentation assay the ability of recombinant Tau protein (here using the longest isoform) to polymerise in oxidative conditions in presence or absence of recombinant FKBP52. After dialysis of Tau (0.5 mg/ml) overnight at 4° C. in Tris 10 mM pH7.4 and centrifugation at 14000 rpm, quantitative western blotting was used to monitor the polymerization of Tau protein. […] This experiment means that Tau in oxidative conditions self polymerise and confirms, as already reported, the importance of cysteines in first step of Tau oligomerization process (Schweers et al 1995).

recombinant Tau (hT40) = target: T5, recombinant Tau (hT40) (Homo sapiens, UniProt P10636); assay: Dot blot assay, FKBP52 captured by spotted recombinant Tau; format: binding
T5 construct: made in house; host or cells: E. coli
T5 sequence (P10636 1-441 isoform P10636-8): as above
Protocol: as §2

Molecule: C[C@H]1c2cccc(O)c2C(=O)C2=C(O)[C@]3(O)C(=O)C(C(N)=O)=C(O)[C@@H](N(C)C)[C@@H]3[C@@H](O)[C@@H]21 [Dox, doxycycline]
decrease in neurite length (H7C2 cells [1]): 40%
FKBP52 induction (H7C2 cells [2]): about 4 fold

FKBP52 captured by P-Tau [3]: 41%
effect on microtubule formation induced by Tau [4]: formation of microtubules was prevented
FKBP52 retained by HP-Tau [5]: 73%
Tau polymers in pellet ([6]; FKBP52 at 0.1 or 0.25 mg/ml): increasing Tau polymers in pellet
FKBP52 retained by hT40 in the presence of cytosolic proteins (recombinant Tau (hT40); 2.2 μg hT40 with cytosol added just prior to spotting): 6.6%
FKBP52 retained by hT40 (recombinant Tau (hT40); 2.2 μg non phosphorylated hT40): 3.5%
retention by spotted Tau (recombinant Tau (hT40); different amounts of hT40 spotted, GST spot as control): retained in a dose dependent manner
B1: FKBP52: purified recombinant full length immunophilin FKBP52 (FK506-Binding Protein), cleaved from GST with thrombin (protein, UniProt Q02790 1-459, looked up)
chain: MTAEEMKATESGAQSAPLPMEGVDISPKQDEGVLKVIKREGTGTEMPMIGDRVFVHYTGWLLDGTKFDSSLDRKDKFSFDLGKGEVIKAWDIAIATMKVGEVCHITCKPEYAYGSAGSPPKIPPNATLVFEVELFEFKGEDLTEEEDGGIIRRIQTRGEGYAKPNEGAIVEVALEGYYKDKLFDQRELRFEIGEGENLDLPYGLERAIQRMEKGEHSIVYLKPSYAFGSVGKEKFQIPPNAELKYELHLKSFEKAKESWEMNSEEKLEQSTIVKERGTVYFKEGKYKQALLQYKKIVSWLEYESSFSNEEAQKAQALRLASHLNLAMCHLKLQAFSAAIESCNKALELDSNNEKGLFRRGEAHLAVNDFELARADFQKVLQLYPNNKAAKTQLAVCQQRIRRQLAREKKLYANMFERLAEEENKAKAEASSGDHPTDTEMKEEQKSNTAGSQSQVETEA
modifications: full-length
Tau polymers in pellet ([6]; equimolecular or two times quantities of FKBP52 versus Tau): prevent the presence of pelletable polymers of Tau
Tau in pellet fraction ([6]; oxidative medium, equimolecular coincubation): no detectable presence of Tau in pellet fraction
